Here are results for one protein from patent publication US20240309103A1 (Regeneron, published 2024).

The series concerns the molecule itself. Description: SEC-MALS. (In general: In gel filtration, larger molecules generally elute earlier.)

Procedure: After overnight incubation in PBS at 4° C., the complexes were injected into the SEC-MALS system, which consists of a Superdex 200 Increase 10/300 GI column on an ÄKTA micro system (GE Healthcare Life Sciences), followed by a miniDAWN Treos and Optilab T-rEX (Wyatt Technology Corporation). […] Size exclusion chromatography data was evaluated using Unicorn (Version 5.20 General Electric Company), and the MALS data was evaluated using ASTRA (Version 7.0.0.69 Wyatt Technology).

B1: human NPR1 extracellular domain expressed with a C-terminal myc-myc-hexahistidine (hNPR1-MMH) (receptor)
chain: GNLTVAVVLPLANTSYPWSWARVGPAVELALAQVKARPDLLPGWTVRTVLGSSENALGVCSDTAAPLAAVDLKWEHNPAVFLGPGCVYAAAPVGRFTAHWRVPLLTAGAPALGFGVKDEYALTTRAGPSYAKLGDFVAALHRRLGWERQALMLYAYRPGDEEHCFFLVEGLFMRVRDRLNITVDHLEFAEDDLSHYTRLLRTMPRKGRVIYICSSPDAFRTLMLLALEAGLCGEDYVFFHLDIFGQSLQGGQGPAPRRPWERGDGQDVSARQAFQAAKIITYKDPDNPEYLEFLKQLKHLAYEQFNFTMEDGLVNTIPASFHDGLLLYIQAVTETLAHGGTVTDGENITQRMWNRSFQGVTGYLKIDSSGDRETDFSLWDMDPENGAFRVVLNYNGTSQELVAVSGRKLNWPLGYPPPDIPKCGFDNEDPACNQDHLSTLEEQKLISEEDLGGEQKLISEEDLHHHHHH
notes: also called hNPR.mmh; monomeric human NPR1
With B1, the binding result was “binds”.
